The target of the series is AMDV VP2 (Aleutian mink disease virus, UniProt A0A168PAM8 200-588). In words: ELONA. Conditions: protein: recombinant; tags: His.

B1: ADVa014 (ssDNA)
DNA: AGCAGCACAGAGGTCAGATGTGTTGTCCCGGGGCCCTATGCGTGCTACCGTGAATAGCGTCCTATGCGTGCTACCGTGAA
For orientation: Kd means a measure of binding affinity in units of concentration. Turning to B1, the Kd was found to be 247 ± 62.5 nM.

B2: ADVa001 (ssDNA)
DNA: AGCAGCACAGAGGTCAGATGGTGTGTGTGTGTGTGTGTGTGCCTATGCGTGCTACCGTGACCTATGCGTGCTACCGTGAA
For the molecule B2, the Kd stood at 566 ± 127 nM.

B3: ADVa011 (ssDNA)
DNA: AGCAGCACAGAGGTCAGATGGGGTTGTCGGTGTTTGCGGGCCTATGCGTGCTACCGTGAACCTATGCGTGCTACCGTGAA
On to B3, for which the Kd came out at 2090 ± 754 nM.

B4: ADVa012 (ssDNA)
DNA: AGCAGCACAGAGGTCAGATGAGCTAGTGCCTATGCGTGCTACCGTGAATAGCGTCAGCAGCCTATGCGTGCTACCGTGAA
Regarding B4, the Kd came to 930 ± 285 nM.

Values taken from publication PMC7907208, “Aptamer-targeting of Aleutian mink disease virus (AMDV) can be an effective strategy to inhibit virus replication”.
